In US20040156824A1:
Ends that are not written are not given here.

Experiments:
[1] = molecular target: nucleohistones expressed in the nucleus of mammalian cells; assay: radioimmunoassay on paraformaldehyde-acetone-treated cells
[2] = molecular target: variant of the HLA-Dr antigen expressed on the cell surface of human B-lymphocytes and malignant lymphomas (human); assay: indirect cell binding assay
[3] = molecular target: variant of the HLA-Dr antigen expressed on the cell surface of human B-lymphocytes and malignant lymphomas (human); assay: live cell binding assay
[4] = molecular target: nucleohistones expressed in the nucleus of mammalian cells; assay: cell binding assay (printed as live cell binding assay)
[5] = molecular target: variant of the HLA-Dr antigen expressed on the cell surface of human B-lymphocytes and malignant lymphomas (human); assay: live cell radioimmunoassay on Raji cells

125I-labeled TNT-1 F(ab')2 fragment (antibody)
immunoreactivity [1]: > 80%

Lym-1/3B immunoconjugate (from UniProt P60568 53-78)
percent of the antibody binding reactivity retained against unconjugated antibody [2]: > 75%

Lym-1/4A immunoconjugate (from UniProt P60568 125-153)
percent of the antibody binding reactivity retained against unconjugated antibody [2]: > 75%

Lym-1/4B immunoconjugate (from UniProt P60568 107-153)
percent of the antibody binding reactivity retained against unconjugated antibody [2]: > 75%

Lym-1/A3 immunoconjugate (from UniProt P60568 57-92)
percent of the antibody binding reactivity retained against unconjugated antibody [2]: > 75%

Lym-1/IL-2 immunoconjugate (from UniProt P60568 21-153)
percent of the antibody binding reactivity retained against unconjugated antibody [3]: > 75%

TNT-1/IL-2 immunoconjugate (from UniProt P60568 21-153)
percent of the antibody binding reactivity retained against unconjugated antibody [4]: > 75%

B1: 125I-labeled Lym-1 F(ab')2 fragment (antibody, from another filing, mouse IgG2a, V domains shown)
VH: QLKESGPGLVAPSQSLSITCTISGFSLTSYGVHWVRQPPGKGLEWLVVIWSDGSTTYNSALKSRLSISKDNSKSQVFLKMNSLQTDDTAIYYCASHYGSTLAFASWGHGTLVTVSA
VL: DIQMTQSPASLSASVGETVTIICRASVNIYSYLAWYQQKQGKSPQLLVYNAKILAEGVPSRFSGSGSGTQFSLKINSLQPEDFGSYYCQHHYGTFTFGSGTKLEIK
percent of radiolabeled preparation bound to cells (immunoreactivity) [5]: 80%

FYMPKKATELKHLQC (peptide, UniProt P60568 64-78, looked up, part only, also: conjugated to murine antibody Lym-1) [Lym-1/3A immunoconjugate]
percent of the antibody binding reactivity retained against unconjugated antibody [2]: > 75%

TRMLTFKFYMPKKATELKHLQC (peptide, UniProt P60568 57-78, looked up, part only, also: conjugated to murine antibody Lym-1) [Lym-1/B1 immunoconjugate]
percent of the antibody binding reactivity retained against unconjugated antibody [2]: > 75%

QMILNGINNYKNPKLTR (peptide, UniProt P60568 42-58, looked up, part only, also: conjugated to murine antibody Lym-1) [Lym-1/E6 immunoconjugate]
percent of the antibody binding reactivity retained against unconjugated antibody [2]: > 75%
